Test results: US20190276549A1
Where two headings read alike, the source gives them in different places. One block for each substance: values may come before it.

Experiments:
C1q (human) [1] = molecular target: C1q (human) (UniProt P02745); assay: cell-based or functional assay
C1q (human) [2] = molecular target: C1q (human) (UniProt P02745); assay: cell-based or functional assay; remark: listed apart in the source
CD52 (human) [3] = molecular target: CD52 (human) (UniProt P31358); assay: QIFIKIT indirect immunofluorescence, flow cytometry, 10 µg/mL antibody, Ramos cells
CD52 (human) [4] = molecular target: CD52 (human) (UniProt P31358); assay: QIFIKIT indirect immunofluorescence, flow cytometry, 10 µg/mL antibody, Daudi cells
CD52 (human) [5] = molecular target: CD52 (human) (UniProt P31358); assay: QIFIKIT indirect immunofluorescence, flow cytometry, 10 µg/mL antibody, U-698-M cells
CD52 (human) [6] = molecular target: CD52 (human) (UniProt P31358); assay: QIFIKIT indirect immunofluorescence, flow cytometry, 10 µg/mL antibody, U-266B1 cells
CD52 (human) [7] = molecular target: CD52 (human) (UniProt P31358); assay: QIFIKIT indirect immunofluorescence, flow cytometry, 10 µg/mL antibody, Raji cells
CD52 (human) [8] = molecular target: CD52 (human) (UniProt P31358); assay: QIFIKIT indirect immunofluorescence, flow cytometry, 10 µg/mL antibody, Wien 133 cells
CD52 (human) [9] = molecular target: CD52 (human) (UniProt P31358); assay: QIFIKIT indirect immunofluorescence, flow cytometry, 10 µg/mL antibody, REH cells

Chain of UniProt P02745 (P02745 23-245 limits assumed, chain 1 of 3): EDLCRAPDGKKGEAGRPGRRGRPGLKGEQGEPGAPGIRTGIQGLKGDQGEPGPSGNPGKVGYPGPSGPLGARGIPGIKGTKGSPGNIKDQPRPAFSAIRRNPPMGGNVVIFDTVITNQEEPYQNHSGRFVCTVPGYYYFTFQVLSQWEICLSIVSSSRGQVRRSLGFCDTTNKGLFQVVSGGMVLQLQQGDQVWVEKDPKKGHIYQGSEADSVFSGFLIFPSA
Chain of UniProt P02745 (P02746 28-253 limits assumed, chain 2 of 3, further chain): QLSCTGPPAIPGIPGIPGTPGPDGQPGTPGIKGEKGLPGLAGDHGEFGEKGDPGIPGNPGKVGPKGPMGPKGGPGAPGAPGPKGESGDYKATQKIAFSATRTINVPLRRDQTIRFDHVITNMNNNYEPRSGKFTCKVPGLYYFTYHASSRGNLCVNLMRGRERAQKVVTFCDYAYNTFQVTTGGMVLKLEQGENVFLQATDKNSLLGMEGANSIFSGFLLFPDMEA
Chain of UniProt P02745 (P02747 29-245 limits assumed, chain 3 of 3, further chain): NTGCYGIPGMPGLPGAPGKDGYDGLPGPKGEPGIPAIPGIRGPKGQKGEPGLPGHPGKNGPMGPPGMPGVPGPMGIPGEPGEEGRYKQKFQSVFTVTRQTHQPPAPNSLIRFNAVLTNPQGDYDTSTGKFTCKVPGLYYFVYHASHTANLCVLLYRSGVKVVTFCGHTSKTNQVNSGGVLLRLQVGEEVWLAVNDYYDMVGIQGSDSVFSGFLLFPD

- CDC on Wien 133 cells, 20% NHS: area under the dose response curve, IgG1-Campath = 100% (C1q (human) [1]): 60%
Substance: IgG1-Campath variant E345R with the K322E mutation (antibody)

- CDC on Daudi cells, 20% NHS: EC50 (C1q (human) [2]): 0.01 µg/mL
- CDC on Daudi cells, 20% NHS: EC50 (C1q (human) [1]): 0.005 µg/mL
Substance: IgG1-005-E430G (antibody)

- CDC on Daudi cells, 20% NHS: EC50 (C1q (human) [2]): 0.06 µg/mL
Substance: IgG1-005-AA-E430G (antibody)

- CDC on Daudi cells, 20% NHS: EC50 (C1q (human) [1]): 0.15 µg/mL
Substance: IgG1-005-D270R/E430G (antibody)

- CDC on Wien 133 cells, 20% NHS: area under the dose response curve relative to IgG1-Campath (C1q (human) [1]): 2.4 fold
- CDC on Wien 133 cells, 20% NHS: area under the dose response curve, IgG1-Campath = 100% (C1q (human) [1]): 240%
Substance: IgG1-Campath-E345K (antibody)

- CDC on Daudi cells, 20% NHS: EC50 (C1q (human) [2]): 0.01 µg/mL
Substance: IgG1-005-E345R (antibody)

- CDC on Daudi cells, 20% NHS: EC50 (C1q (human) [2]): 0.14 µg/mL
Substance: IgG1-005-AA-E345R (antibody)
- CDC on Daudi cells, 20% NHS: maximal kill (C1q (human) [2]): 74.3%

- antibody binding capacity (Molecules/cell) (molecules/cell) (CD52 (human) [3]): 179000
- antibody binding capacity (Molecules/cell) (molecules/cell) (CD52 (human) [4]): 7280
- antibody binding capacity (Molecules/cell) (molecules/cell) (CD52 (human) [5]): 93700
- antibody binding capacity (Molecules/cell) (molecules/cell) (CD52 (human) [6]): 1.46e+06
- antibody binding capacity (Molecules/cell) (molecules/cell) (CD52 (human) [7]): 85500
- antibody binding capacity (Molecules/cell) (molecules/cell) (CD52 (human) [8]): 332000
- antibody binding capacity (Molecules/cell) (molecules/cell) (CD52 (human) [9]): 135000
Substance: IgG1-Campath (antibody)
